Series [1] deals with the molecule itself. The series can be described thus: crystal structure; CrGAPA with 1 mM NADP+ or NAD+, hanging drop at 293 K, 1.2-1.6 M (NH4)2SO4, 0.1 M Tris-HCl pH 7.5-8.5; dimer in the asymmetric unit, tetramer by a crystallographic 2-fold axis.
Series [2] concerns the molecule itself. Briefly: crystal structure; oxidized NADP+-CrGapA, hanging drop at 293 K, 1.2-1.6 M (NH4)2SO4, 0.1 M Bicine pH 9.5; dimer in the asymmetric unit, tetramer by a crystallographic 2-fold axis.

B1: photosynthetic glyceraldehyde-3-phosphate dehydrogenase from Chlamydomonas reinhardtii (CrGAPA) (enzyme, UniProt P50362 35-374, looked up)
chain: EKKIRVAINGFGRIGRNFLRCWHGRQNTLLDVVAINDSGGVKQASHLLKYDSTLGTFAADVKIVDDSHISVDGKQIKIVSSRDPLQLPWKEMNIDLVIEGTGVFIDKVGAGKHIQAGASKVLITAPAKDKDIPTFVVGVNEGDYKHEYPIISNASCTTNCLAPFVKVLEQKFGIVKGTMTTTHSYTGDQRLLDASHRDLRRARAAALNIVPTTTGAAKAVSLVLPSLKGKLNGIALRVPTPTVSVVDLVVQVEKKTFAEEVNAAFREAANGPMKGVLHVEDAPLVSIDFKCTDQSTSIDASLTMVMGDDMVKVVAWYDNEWGYSQRVVDLAEVTAKKWVA
notes: Glyceraldehyde-3-phosphate dehydrogenase A, chloroplastic (GAPA), Chlamydomonas reinhardtii; mature protein; Homotetramer of A-type subunits; also called NADP-CrGAPA; NAD-CrGAPA
What is called stoichiometry N is the number of molecules, sites or subunits per partner or assembly. In the case of B1, the “stoichiometry N” value in series [1] amounted to 4.

B2: oxidized NADP+-CrGAPA (catalytic Cys149 oxidized to sulphinate/sulphonate) (enzyme, Chlamydomonas reinhardtii, UniProt P50362 35-374, looked up)
chain: B1 chain
modifications: Cys149 oxidized to sulphinate/sulphonate (-SO2-/-SO3-)
notes: Glyceraldehyde-3-phosphate dehydrogenase A, chloroplastic (GAPA), Chlamydomonas reinhardtii; mature protein; Same construct as m1; Cys149 found oxidized in crystals grown in 0.1 M Bicine pH 9.5 with NADP+
Take B2: the “stoichiometry N” value in series [2] came out at 4.

The values above are taken from publication PMC9287727, “Structural snapshots of nitrosoglutathione binding and reactivity underlying S-nitrosylation of photosynthetic GAPDH” (Redox Biology, 2022).
